Test results: the domain aggregation screens of Martell et al. (2025)

Experiment: soluble fraction after stress (log2 fold change); higher = more stays soluble; pooled small domains, quantitative proteomics
Conditions: stress: pH 4
In short: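 Values are on a log2 scale, where higher means more of the domain stayed soluble after pH 4 stress. They are fold changes in the soluble amount of each domain from pooled custom libraries, measured by high-throughput quantitative proteomics. The fold change is taken to reflect aggregation propensity.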

Sequence | soluble fraction (log2)
HMQEHAHLWRLMEDNRSFKADYIAFENGIVLLQNLSSGKISQYPITDFSIEDQLLILKRHELTAHINAN | -0.0419
HMQEIKPEPISDGRVWKEGMWATTPLGIEGQLLSDPDEKGMVQLGYGNMRININIQDLDPSR | -0.207
HMQEISQEEALATVLKDLSLTEADLKDLQITREEDKYKILFSKGQTAYDVLVSAKDGQLLQSKQETI | -0.359
HMQEKQIIDGREFYIHQVERGITLYSIAKQYNVKVADIQAENPFLEAGLQPGQTLKIPLDKVETVQEIK | -0.17
HMQEPIAVPDFINKSAVDVLVNPVFTQNFKLVSEDVYDDKVPEGYIVGQSVKSDTLVQPGTEIVIYV | 0.0962
HMQEPNYQPLMQNIKSQDLEEVTRLLSLNDVKFKIDHRTGLLLVESSRVYEAKMKLAATGITD | -1.15
HMQEPVHFTRRERQVLSLILSGQATAEIAKTLGIANATVTTYKKSLYSKSGTNSLSRLLIWAMVRR | -0.332
HMQEPVYRPVFPGMTDADRQSAMEALKEGGFSPRLNRQTGQLEVDASGYHEAKIYLASQGIPAE | 0.22
HMQERNYIVRRGDTLWDLAKTYYGSGTKYTVIYDANRDNIEAEAKRRGKQSSNGGYWIYPGTELTI | -0.0819
HMQERTVVKGVVVQVSRDEAYVDIGYKQEIPVSKRDLAVPAPDDARDVVKVGDEIDVYIKSLGGDNGG | -0.0346
HMQESTPGEGYKWREDVLLRVMSQNGIDESLRDEFVRHAVNYDIDDNMYLKKAEIESAAEAWVLENS | -1.92
HMQESVTVSAQALRRLLEKGDGDAALLYLALLRHHGTIQPRALAGELRWERPRIEAAEEALRQMGLIA | 0.121
HMQETMTNDEVISLTKAGLSSSIIIGKIRSSATNFDLSTDSLIKLKQAGVSDETVAAMLEAKS | 0.181
HMQGAARGMLFAQAQRWMTKFRIDPQQADRITQAALDPAQTDAILREVRRGYGPSAERALRGIIRRARRA | 0.259
HMQGEAMQETVKKLDAFLQDNSVSMSALARALGVSPSLISQFRSGSYKGDSQAIAAKINSYIDNHNKKSK | 0.0656
HMQGEKDDLWREVLDNPDAWWDNRERKNAPGGNPRYPDFKHKDSQTPLWIESRDTPQWAIDALL | -0.406
HMQGNGKVATELLKDIIASDNLYINAMRMLVMHYNSKGTNQVEMVKLLHNILDLVPDDEYANEILKSAKKA | -0.637
HMQGPDPYAVLGIDRHADERAIKRAYRKLISEHHPDRLGDLPEDMRKRAESRASEINAAYDRIKEARGF | 0.13
HMQGQVLQETARKARSQLDSEIPGFNDALYQNLIKSSENYGYKAEEVAQWVDPRAIKVLNDAYQFQQLKAG | -0.25
HMQGTTTELLIQKSALYEELNDPEKALNAMFDAFEMDSLNVNVLHRIVSLLLDKEENEKAILYNQLIIDH | -0.507
HMQHQSGLKSGEFEAISQQLQALLKENPLSLQEIKDKMQVTENHLIKVVSYLVSEEIIRQENGYLK | -1.67
HMQIAGLDDIDNRIIDLLLKNGRASYSEIGAAVGLSRTAAKNRIRALEASGIIRGYQAILDPQA | 0.0596
HMQIDDSVELSAIVEKLLAANPEQVEQLKNGKTKVLGYFVGLAMKETQGRANPQKVNELIQTHL | -0.308

Sequence | soluble fraction (log2)
HMQIDRLFDIVYTLLRKKSATAAELAERFGVSKRTILRDIETLSVAGIPILTSPGKGGGVSISSSF | -0.423
HMQIIETTVGRVLFNEKVPEAAGYINEVLTKKSLRDIIHGILKKTSVPETAAFLDEIKSLGYNFAF | -0.264
HMQIIEVPYSEFLKKLESGQISEVSRDSYQIVFTDRSQPPIIYKTGLMEDPGLVDKMQEAGVTFTSP | -0.228
HMQIKNVDYGTFLDMLDEKNVKEVEIEDEQIVFTDNADPTGYYTTGRMEDPDLVDRLHNSGATFSAI | -0.841
HMQILLASHAELAKGILSAVELIAGTQQNLKAYSAYTEAVDVHFKDQMLQDLNKMDPEDEVIL | 0.0244
HMQINLSEWVLAAREYAGPEMTQEKLAEHLGRTKANVSAMENGRSKPSFEQMMEIHRVTGYPLPYQ | -0.0156
HMQISDAGALLDAVRRVLAENPAQVEQFRAGKEKVMGFLVGQVMRATGGKANPQMLNDVLREELS | 0.198
HMQISDEGELSGIVRKIIDANPQSVADYKAGKKKAIGFLVGQIMIETKGRANPASVNELLIKKLE | 0.105
HMQISDNTILEDAVSRIIDENPKSVSDYFQGKEAVVGFFIGQIMRETKGTANPKIAREIVISHLEAI | -0.819
HMQISGIHLYERRITKDDEWAERKLSEISLAGSLVILILRNEHVVIPNGETVLKENDLLYISD | -1.38
HMQISGSEELEKIVQTVLEKNTDVVEEYKSGKTKVFAFLMGQVMKESRGKANPRLAKDILEKFLA | 0.177
HMQITAPVQKIDGVEYYMHKVEQGQTLYSISKLYNVGVKEIQKANQLGTEGIQLGQVLKVRKGG | 0.00111
HMQIYLTPEQFKIIDFMEQMGKITVKDVMDILNIPKRTAQLHLQKLKTLKMIAQTGKGPSSAYLL | -0.797
HMQKDAYVPDIISKLKSSRMIVVEGTIYPLLTRLKNTGLLSYRWEESLQGPPRKYYSITEQG | -0.0816
HMQKDYKTRLQEYYAKVGKKVNYMDSSTGPDHDKKFQTQVFLDKEIIGVGEGKSKKSSQQEAAKQALEKI | ≥ 0.43
HMQKFINQEHEKAYNLMLEKDYQQALKIFDDLIYLFPNEANLLSDRGVIFIHLNKKEAALQDFDQAVF | -1.49
HMQKIEKVDYGTFLKMIENGEIDQVNLTEKKISFTTDKDAETVYETGRVEDPNIVDRLYQADVEFTQEI | -0.884
HMQKIENYDQFVQAFKRLSGLDLKLYKENQMKRRINNFINNHGFKENYDQFFQAITGNKELYNAFFKHLTI | -0.395
HMQKKYLAVKEYLLEQINSGAYQPDEPIPPEREMAAMLGVNRMTLRRAVEELMYEGLLIRKKGSGTFLTK | -0.714
HMQKLSPKQRRGNIIELIKENPTITAKNISTIFNLNQRTIERDLAKLTEEGYIKYEGSSKDGKWVFL | ≥ 0.43
HMQKNKSVLFKDIVIAFNQNPKKLFNYKQLAADLDIHSEAERMLISQLLNDLKDQNFLEEVERGKYKLKL | -0.479
HMQKPIKPVKMHTVGPKENLSSIGRMYEVNGRVLANYNNIDYDKGLTIGQVLKIPPKGTTLEQVT | 0.0149
HMQKTIDWSQVDKEQYLSAMERSPVNDLEIKAILAKALTSDINNRELFMKGLDHSYYFEGYQLFKSE | -0.939

Sequence | soluble fraction (log2)
HMQKTQVVEVAGKSYQLTKMDARTGSYVAFKVAGVLAPSGGKTAEMAAALMGMPRKDFDELQSLLLRTV | ≥ 0.43
HMQKYSTIIGVIELRQSGIGYRTTKKRYNIGNSTVTLIMNRFHELGLSLEELKAMPPKKVEEAFYPPE | -0.0306
HMQLASILDDIPGIGKKRKENLLTHFGSFSKIQSADIDALAEVPGISRDLAETIHTYLKTHQ | -0.0521
HMQLDLSDPSKNKLDSIVSLPIKSLKAVEANGEILFMSENGRFVLRGQLYDIWYKDTLDTSAQIQDAATRI | 0.179
HMQLDLTSTLDHMYKQMRNDHPRALLMAVEKEMVLRALKETDGNQLRASDILGISRSTLRKRIEEFDINS | -0.257
HMQLEPLITSVIPVNFAKAGEVATTIKGKEVGLVSDRGSITAESRTNVLIVKDIKKNVDDISAMVKRLD | -0.0177
HMQLGEEAGDELVAIVRSVINDNDKALADYLAGKSSALKFLLGQVMRQTKGRADHALVQSLLEAELEAL | -0.586
HMQLHDTMKRVYEALDISEQKLAESLGLKLSTIINWQKNGISKIGINKLNQTFGLDMQWILTGQGEPFI | -0.0735
HMQLLDIGSAVRIIREPYFGRLGTVVELPPELMEIESGTHARVLKAKLDDGTVAVVPRANVEIIVE | -1.34
HMQLNNTDELEKIILKILENNPKQVDQFLAGKQKLLGFFVGQAMRATSGKANPKTVNDLLEKFLSK | -0.335
HMQLPDLDEIRQMRKRLDLSQRELAALAGVSQSLIAKIEKGSIDPSYDNVRKIFNAFENILKKRALE | -0.495
HMQLPIGDVKLSVEHLSSGTALQDISFEVHRGEIFGFLGLVGAGRSETAETIFGLREKTDGKISIDGTVL | 0.117
HMQLPTNAAAILRYLSSGAVKGVGSATAVRIVEKFGEETLNILEQDPLRLAEIRGISRDKAKKIGEDFASQ | 0.0714
HMQLSMLPYGFARRHGVLLVEQDEQPTLIHRAGITATVIAEVQRVAGQIDAWRLVDDARFDQQLAEVYRD | -1.41
HMQLTPAQHAILAYAIEHTGGKIEWFPDNIKGGARTKVLEGLFNKALITRDSTDWFVAAEGYDALGR | 0.428
HMQLYSLEVLSKKKVDLIENNKNLINLYFNKENGEYSYRLIFKNRKELYQVKDTLDNSSDVVSIKLDL | -0.181
HMQMGLNEAYRVLHVSPDAPWREVQSAYKERMAKSHPDKVSHLGEELQEKAKELTVEINKAYNTIKRYKK | -0.0378
HMQMKDRILRIMEHEGISPSKFAEEIGIQRSAMSHIISGRNNPSLDVLTKIMQRFTYVDTDWLLFGKGSMV | -0.334
HMQMPDLTGKPRAEAVTTLAALGFTDVKFLDASAGDEPLDYVADQVVRTSPEAGAALASGQQITIYLAT | -0.0191
HMQMSDTSMIRDLVLQVLAENPQSIEDFKNGKDRAVGFLVGMVMKKSQGKANPQITNQMIVEELKK | -0.277
HMQMSERENTILLTKRYIERGEYERAMNLLDSLLIKNALDEEALAMIDEIIALKAGASLQDFPRY | -1.48
HMQMTTPQMVPLFTDLSVDDSASIIKDLERQAVPYQIKSDGAIIMVPKDKVTRLRMKLAESGLPK | 0.402
HMQNDDLTKLDGIGPYIEQRLNDIGIYNYEQLSKLNTEDIQKITELIDFFPGRIERDNWVSQAQLLKI | -0.807
